Experimental data as given in patent publication US6869925 (Amgen, dated 2005).

B1: human neutrophil elastase (protein)
chain: IVGGRRARPHAWPFMVSLQLRGGHFCGATLIAPNFVMSAAHCVANVNVRAVRVVLGAHNLSRREPTRQVFAVQRIFENGYDPVNLLNDIVILQLNGSATINANVQVAQLPAQGRRLGNGVQCLAMGWGLLGRNRGIASVLQELNVTVVTSLCRRSNVCTLVRGRQAGVCFGDSGSPLVCNGLIHGIASFVRGGCASGLYPDAFAPVAQFVNWIDSIIQ
B2: cathepsin G (protein)
chain: IIGGRESRPHSRPYMAYLQIQSPAGQSRCGGFLVREDFVLTAAHCWGSNINVTLGAHNIQRRENTQQHITARRAIRHPQYNQRTIQNDIMLLQLSRRVRRNRNVNPVALPRAQEGLRPGTLCTVAGWGRVSMRRGTDTLREVQLRVQRDRQCLRIFGSYDPRRQICVGDRRERKAAFKGDSGGPLLCNNVAHGIVSYGKSSGVPPEVFTRVSSFLPWIRTTMRS

Legend:
[1] = target: SLPI binding sites on U937 cells (human monocyte cell line; intact cells, PMA-induced cells or plasma membranes) (human); assay: competition with 125I-SLPI, U937 plasma membranes, Kd by Cheng-Prusoff
[2] = target: SLPI binding sites on U937 cells (human monocyte cell line; intact cells, PMA-induced cells or plasma membranes) (human); assay: competition with 125I-SLPI, U937 plasma membranes, competitor at 2.56 nM
[3] = target: SLPI binding sites on U937 cells (human monocyte cell line; intact cells, PMA-induced cells or plasma membranes) (human); assay: competition with 125I-SLPI, U937 plasma membranes, competitor at 268 nM
[4] = target: SLPI binding sites on U937 cells (human monocyte cell line; intact cells, PMA-induced cells or plasma membranes) (human); assay: competition with 125I-SLPI, intact U937 cells, competitor at 0.024 nM
[5] = target: SLPI binding sites on HuT78 cells (human T cell line) (human); assay: competition with 125I-SLPI, intact HuT78 cells, competitor at 84 nM
[6] = target: SLPI binding sites on U937 cells (human monocyte cell line; intact cells, PMA-induced cells or plasma membranes) (human); assay: competition with 125I-SLPI, U937 plasma membranes, competitor at 2750 nM
[7] = target: SLPI binding sites on HuT78 cells (human T cell line) (human); assay: competition with 125I-SLPI, intact HuT78 cells, competitor at 2750 nM
[8] = target: SLPI binding sites on HuT78 cells (human T cell line) (human); assay: competition with 125I-SLPI, intact HuT78 cells, competitor at 2.6 nM
[9] = target: SLPI binding sites on U937 cells (human monocyte cell line; intact cells, PMA-induced cells or plasma membranes) (human); assay: competition with 125I-SLPI, U937 plasma membranes, competitor at 0.800 nM
[10] = target: SLPI binding sites on HuT78 cells (human T cell line) (human); assay: competition with 125I-SLPI, intact HuT78 cells, competitor at 8.2 nM
[11] = target: SLPI binding sites on U937 cells (human monocyte cell line; intact cells, PMA-induced cells or plasma membranes) (human); assay: competition with 125I-SLPI, intact U937 cells, competitor at 0.80 nM
[12] = target: SLPI binding sites on U937 cells (human monocyte cell line; intact cells, PMA-induced cells or plasma membranes) (human); assay: competition with 125I-SLPI, intact U937 cells, competitor at 0.078 nM
[13] = target: SLPI binding sites on U937 cells (human monocyte cell line; intact cells, PMA-induced cells or plasma membranes) (human); assay: competition with 125I-SLPI, intact U937 cells, competitor at 0.25 nM
[14] = target: SLPI binding sites on U937 cells (human monocyte cell line; intact cells, PMA-induced cells or plasma membranes) (human); assay: competition with 125I-SLPI, intact U937 cells, competitor at 2750 nM
[15] = target: SLPI binding sites on U937 cells (human monocyte cell line; intact cells, PMA-induced cells or plasma membranes) (human); assay: competition with 125I-SLPI, intact U937 cells, competitor at 84 nM
[16] = target: SLPI binding sites on U937 cells (human monocyte cell line; intact cells, PMA-induced cells or plasma membranes) (human); assay: competition with 125I-SLPI, intact U937 cells, competitor at 26 nM
[17] = target: SLPI binding sites on U937 cells (human monocyte cell line; intact cells, PMA-induced cells or plasma membranes) (human); assay: competition with 125I-SLPI, intact U937 cells, competitor at 860 nM
[18] = target: SLPI binding sites on U937 cells (human monocyte cell line; intact cells, PMA-induced cells or plasma membranes) (human); assay: competition with 125I-SLPI, U937 plasma membranes, competitor at 0 nM
[19] = target: SLPI binding sites on HuT78 cells (human T cell line) (human); assay: competition with 125I-SLPI, intact HuT78 cells, Kd by Cheng-Prusoff
[20] = target: SLPI binding sites on U937 cells (human monocyte cell line; intact cells, PMA-induced cells or plasma membranes) (human); assay: competition with 125I-SLPI, U937 plasma membranes, competitor at 83.9 nM
[21] = target: SLPI binding sites on U937 cells (human monocyte cell line; intact cells, PMA-induced cells or plasma membranes) (human); assay: competition with 125I-SLPI, intact U937 cells, competitor at 270 nM
[22] = target: SLPI binding sites on U937 cells (human monocyte cell line; intact cells, PMA-induced cells or plasma membranes) (human); assay: competition with 125I-SLPI, U937 plasma membranes, competitor at 8.20 nM
[23] = target: SLPI binding sites on HuT78 cells (human T cell line) (human); assay: competition with 125I-SLPI, intact HuT78 cells, competitor at 0 nM
[24] = target: SLPI binding sites on U937 cells (human monocyte cell line; intact cells, PMA-induced cells or plasma membranes) (human); assay: competition with 125I-SLPI, intact U937 cells, competitor at 0 nM
[25] = target: SLPI binding sites on U937 cells (human monocyte cell line; intact cells, PMA-induced cells or plasma membranes) (human); assay: competition with 125I-SLPI, intact U937 cells, competitor at 8.2 nM
[26] = target: SLPI binding sites on HuT78 cells (human T cell line) (human); assay: competition with 125I-SLPI, intact HuT78 cells, competitor at 0.80 nM
[27] = target: SLPI binding sites on U937 cells (human monocyte cell line; intact cells, PMA-induced cells or plasma membranes) (human); assay: competition with 125I-SLPI, intact U937 cells, Kd by Cheng-Prusoff
[28] = target: SLPI binding sites on U937 cells (human monocyte cell line; intact cells, PMA-induced cells or plasma membranes) (human); assay: competition with 125I-SLPI, U937 plasma membranes, competitor at 268 nM (second GLY72 row)
[29] = target: SLPI binding sites on U937 cells (human monocyte cell line; intact cells, PMA-induced cells or plasma membranes) (human); assay: competition with 125I-SLPI, U937 plasma membranes, competitor at 0 nM (second GLY72 row)
[30] = target: SLPI binding sites on U937 cells (human monocyte cell line; intact cells, PMA-induced cells or plasma membranes) (human); assay: competition with 125I-SLPI, U937 plasma membranes, competitor at 2.56 nM (second GLY72 row)
[31] = target: SLPI binding sites on U937 cells (human monocyte cell line; intact cells, PMA-induced cells or plasma membranes) (human); assay: competition with 125I-SLPI, U937 plasma membranes, competitor at 0.800 nM (second GLY72 row)
[32] = target: SLPI binding sites on U937 cells (human monocyte cell line; intact cells, PMA-induced cells or plasma membranes) (human); assay: competition with 125I-SLPI, U937 plasma membranes, competitor at 83.9 nM (second GLY72 row)
[33] = target: SLPI binding sites on U937 cells (human monocyte cell line; intact cells, PMA-induced cells or plasma membranes) (human); assay: competition with 125I-SLPI, U937 plasma membranes, competitor at 2750 nM (second GLY72 row)
[34] = target: SLPI binding sites on U937 cells (human monocyte cell line; intact cells, PMA-induced cells or plasma membranes) (human); assay: competition with 125I-SLPI, intact U937 cells, competitor at 2.6 nM
[35] = target: SLPI binding sites on U937 cells (human monocyte cell line; intact cells, PMA-induced cells or plasma membranes) (human); assay: competition with 125I-SLPI, U937 plasma membranes, competitor at 8.20 nM (second GLY72 row)
[36] = target: HIV-1 envelope protein gp120

Row | Molecule | Kd [1] [nM] | CPM *SLPI BOUND [2] [cpm] | CPM *SLPI BOUND [3] [cpm] | % *SLPI BOUND [5] [%] | CPM *SLPI BOUND [6] [cpm] | % *SLPI BOUND [7] [%] | % *SLPI BOUND [8] [%] | CPM *SLPI BOUND [9] [cpm] | % *SLPI BOUND [10] [%] | % *SLPI BOUND [11] [%] | % *SLPI BOUND [14] [%] | % *SLPI BOUND [15] [%] | CPM *SLPI BOUND [18] [cpm] | Kd [19] [nM] | CPM *SLPI BOUND [20] [cpm] | CPM *SLPI BOUND [22] [cpm] | % *SLPI BOUND [23] [%] | % *SLPI BOUND [24] [%] | % *SLPI BOUND [25] [%] | % *SLPI BOUND [26] [%] | further results
1 | HIV-1 envelope protein gp120 | 400 |  |  |  |  |  |  |  |  |  |  |  |  |  |  |  |  |  |  |  | 
2 | SLPI mutein Gly 20 (from UniProt P03973 26-132) | 5 | 11400 | 1620 | 50 | 1500 | 7 | 91 | 14900 | 103 | 91 | 5 | 11 | 18700 | 13 | 2490 | 7400 | 100 | 130 | 49 | 109 | % *SLPI BOUND [4]: 110%; % *SLPI BOUND [12]: 117%; % *SLPI BOUND [13]: 110%; % *SLPI BOUND [16]: 28%; % *SLPI BOUND [17]: 5%; % *SLPI BOUND [21]: 6%; Kd [27]: 3.5 nM
3 | SLPI mutein Gly 72 (from UniProt P03973 26-132) | 5 | 12000 | 2840 | 110 | 1780 | 28 | 105 | 14700 | 85 | 116 | 28 | 101 | 18700 | 200 | 3710 | 7210 | 100 | 131 | 117 | 108 | CPM *SLPI BOUND [28]: 2530 cpm; CPM *SLPI BOUND [29]: 18700 cpm; % *SLPI BOUND [4]: 116%; CPM *SLPI BOUND [30]: 11300 cpm; % *SLPI BOUND [12]: 118%; % *SLPI BOUND [13]: 120%; CPM *SLPI BOUND [31]: 14000 cpm; CPM *SLPI BOUND [32]: 3940 cpm; CPM *SLPI BOUND [33]: 1430 cpm; % *SLPI BOUND [16]: 112%; % *SLPI BOUND [17]: 53%; % *SLPI BOUND [34]: 115%; % *SLPI BOUND [21]: 75%; CPM *SLPI BOUND [35]: 7300 cpm; Kd [27]: 400 nM
4 | SLPI mutein Lys 72 (from UniProt P03973 26-132) | 5 | 12200 | 3240 | 86 | 5010 | 34 | 118 | 14200 | 116 | 86 | 4 | 10 | 18700 | 200 | 3500 | 7620 | 100 | 117 | 39 | 105 | % *SLPI BOUND [4]: 116%; % *SLPI BOUND [12]: 113%; % *SLPI BOUND [13]: 103%; % *SLPI BOUND [16]: 21%; % *SLPI BOUND [17]: 5%; % *SLPI BOUND [34]: 71%; % *SLPI BOUND [21]: 6%; Kd [27]: 2.5 nM
5 | SLPI mutein Val 72 (from UniProt P03973 26-132) | 19 | 11600 | 1740 | 43 | 923 | 14 | 96 | 14000 | 81 | 90 | 8 | 48 | 18700 | 9 | 3380 | 9240 | 100 | 95 | 78 | 93 | % *SLPI BOUND [34]: 80%; Kd [27]: 30 nM
6 | alpha-1 protease inhibitor (from UniProt P01009 25-418) | 1000 |  |  |  |  |  |  |  |  |  |  |  |  |  |  |  |  |  |  |  | 
7 | bFGF (from UniProt P09038 143-288) (ligand) |  | 13500 | 14400 |  | 14700 |  |  | 14000 |  |  |  |  | 18700 |  | 15000 | 14500 |  |  |  |  | 
8 | lysozyme (enzyme) |  | 14700 | 14900 |  | 15900 |  |  | 15200 |  |  |  |  | 18700 |  | 15500 | 15000 |  |  |  |  | 
9 | B1 |  |  |  |  |  |  |  |  |  |  |  |  |  |  |  |  |  |  |  |  | proteolytic cleavage of gp120 (Western blot, reducing SDS-PAGE) [36]: Incubation at 37° for 30 min, with 10 nM HNE yielded primarily 2 bands on Western blot
10 | B2 |  |  |  |  |  |  |  |  |  |  |  |  |  |  |  |  |  |  |  |  | proteolytic cleavage of gp120 (Western blot) [36]: gp120 (400 nM) was also incubated at 37° for 30 min, with 10 nM cathepsin G and yielded different bands
